According to PMC7647994 (2020):
Like-named read-outs stand apart in the source and are kept apart here. Values belong to the molecule of their own block, whether it stands above or below them.

Assays:
[1] = target: H10-tagged zinc-binding domain of human CLPX (human); assay: SEC; Superose 12; H10PDIP38, ZBD, or both together; elution profiles from quantified protein bands
[2] = target: H10-tagged zinc-binding domain of human CLPX (human); assay: pull-down; series of pull-down experiments to estimate the affinity of PDIP38 for the ZBD (Supplementary Fig. 3)
[3] = target: T1, H10-tagged zinc-binding domain of human CLPX (human)
T1 chain: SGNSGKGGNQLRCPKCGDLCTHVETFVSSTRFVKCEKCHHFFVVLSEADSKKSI

Molecule: H10-tagged zinc-binding domain of human CLPX (domain or fragment)
stoichiometry N [1]: 2

B3: GST-PDIP38 fusion protein (natural protein)
chain: SSRNRPEGKVLETVGVFEVPKQNGKYETGQLFLHSIFGYRGVVLFPWQARLYDRDVASAAPEKAENPAGHGSKEVKGKTHTYYQVLIDARDCPHISQRSQTEAVTFLANHDDSRALYAIPGLDYVSHEDILPYTSTDQVPIQHELFERFLLYDQTKAPPFVARETLRAWQEKNHPWLELSDVHRETTENIRVTVIPFYMGMREAQNSHVYWWRYCIRLENLDSDVVQLRERHWRIFSLSGTLETVRGRGVVGREPVLSKEQPAFQYSSHVSLQASSGHMWGTFRFERPDGSHFDVRIPPFSLESNKDEKTPPSGLHW
Kd [3]: ~1800 nM

Next, values leading:

Kd [2]: 1800 nM
B1: untagged PDIP38 (natural protein)
chain: SSRNRPEGKVLETVGVFEVPKQNGKYETGQLFLHSIFGYRGVVLFPWQARLYDRDVASAAPEKAENPAGHGSKEVKGKTHTYYQVLIDARDCPHISQRSQTEAVTFLANHDDSRALYAIPGLDYVSHEDILPYTSTDQVPIQHELFERFLLYDQTKAPPFVARETLRAWQEKNHPWLELSDVHRETTENIRVTVIPFYMGMREAQNSHVYWWRYCIRLENLDSDVVQLRERHWRIFSLSGTLETVRGRGVVGREPVLSKEQPAFQYSSHVSLQASSGHMWGTFRFERPDGSHFDVRIPPFSLESNKDEKTPPSGLHW

stoichiometry N (PDIP38 per ZBD2) [1]: 1
B2: His10-tagged recombinant PDIP38 (H10PDIP38) (natural protein)
chain: SSRNRPEGKVLETVGVFEVPKQNGKYETGQLFLHSIFGYRGVVLFPWQARLYDRDVASAAPEKAENPAGHGSKEVKGKTHTYYQVLIDARDCPHISQRSQTEAVTFLANHDDSRALYAIPGLDYVSHEDILPYTSTDQVPIQHELFERFLLYDQTKAPPFVARETLRAWQEKNHPWLELSDVHRETTENIRVTVIPFYMGMREAQNSHVYWWRYCIRLENLDSDVVQLRERHWRIFSLSGTLETVRGRGVVGREPVLSKEQPAFQYSSHVSLQASSGHMWGTFRFERPDGSHFDVRIPPFSLESNKDEKTPPSGLHW
